Experimental data as given in patent US11643670B2, “Methods of enhancing chromosomal homologous recombination” (Massachusetts Institute of Technology, priority 2018, dated 2023).

Test system: R1684H locus
Assay: Genotyping of F1 offspring of F0 Chd2^R1684H/R1684H animals made by the IVF strategy
Format: in vivo, mouse
Settings: F0 homozygotes (IVF strategy including RAD51) crossed with wildtype C57Bl/6N
Procedure: Tail snips (˜0.5 cm length) were collected from animals, placed in 75 μL alkaline lysis buffer (25 mM NaOH, 0.2 mM EDTA), and incubated at 95° C. for 30 minutes. Digestion was stopped via addition of 75 μL neutralization buffer (40 mM Tris-HCl pH 5.0). Samples were stored at 4° C. until genotyping.
Chd2^R1684H genotyping was performed via a two-step, nested approach. Except for experiments described in FIGS. 3A-3G, all 8 μL of embryo DNA were used as input for the initial, long round of PCR. Genotyping of mouse pups and adult animals was performed using 2 μL of purified tail DNA. For all embryo genotyping, reactions mixtures were set up in a UV-sterilized laminar flow hood using sterile reagents and filter tips to avoid contamination. All PCR was performed using Biolase DNA Polymerase (Bioline), fresh aliquots of dNTPs (New England Biolabs), and 2% DMSO (final concentration). Primer pair #1 was used for FIGS. 1A-1E, FIGS. 2A-2E, FIGS. 3A-3G, FIG. 5, FIGS. 7A-7C, FIG. 8, and FIG. 9. All other experiments utilized primer pair #2 to further rule out large deletions that could disrupt primer binding sites. 20 cycles of amplification were performed using 30 second extension and annealing times and an annealing temperature of 67° C. Nested PCR was then performed using 2 μL of the initial 25 μL PCR reaction as input. […]

B1: RAD51: recombinant human strand exchange protein RAD51 (Creative Biomart RAD51-134H), transcript variant 4 (protein, UniProt Q06609 2-339, looked up)
DNA repair protein RAD51 …: AMQMQLEANADTSVEEESFGPQPISRLEQCGINANDVKKLEEAGFHTVEAVAYAPKKELINIKGISEAKADKILAEAAKLVPMGFTTATEFHQRRSEIIQITTGSKELDKLLQGGIETGSITEMFGEFRTGKTQICHTLAVTCQLPIDRGGGEGKAMYIDTEGTFRPERLLAVAERYGLSGSDVLDNVAYARAFNTDHQTQLLYQASAMMVESRYALLIVDSATALYRTDYSGRGELSARQMHLARFLRMLLRLADEFGVAVVITNQVVAQVDGAAMFAADPKKPIGGNIIAHASTTRLYLRKGRGETRICKIYDSPCLPEAEAMFAINADGVGDAKD
In the case of B1, the “F1 offspring heterozygous for the R1684H mutation” value is reported as 100%.
